B1: eNOS(p), peptide of the calmodulin-binding domain of endothelial nitric oxide synthase (peptide)
peptide: RKKTFKEVANAVKISASLMG
notes: Synthetic peptide for ITC and for titration of CaM; The expressed version used for target-domain NMR carries an extra amino-terminal GS
B2: CaMKI(p), peptide of the calmodulin-binding domain of calmodulin kinase I (peptide)
peptide: AKSKWKQAFNATAVVRHMRKLQ
notes: Synthetic peptide for ITC and for titration of CaM; The expressed version used for target-domain NMR carries an extra amino-terminal GS; also called CaMK1p
B3: nNOS(p), peptide of the calmodulin-binding domain of neuronal nitric oxide synthase (peptide)
peptide: KRRAIGFKKLAEAVKFSAKLMGQ
notes: Synthetic peptide for ITC and for titration of CaM
B4: PDE(p), peptide of the calmodulin-binding domain of phosphodiesterase (C15S) (peptide)
peptide: QTEKMWQRLKGILRSLVKQ
notes: C15S is used to avoid oxidation; also called PDEs(p)

What was measured:
[1] = target: T1, calcium-saturated calmodulin (human CaM, GenBank AAD45181) (human, UniProt P0DP23 2-149); assay: isothermal titration calorimetry, CaM (200 µM) titrated into 5-20 µM peptide, 308 K
[2] = target: T1, calcium-saturated calmodulin (human …); assay: isothermal titration calorimetry, CaM (200 µM) titrated into 5-20 µM peptide, 308 K; footnote c: From Frederick et al.

Binder | -TΔSbinding^total [1] | ΔGbinding^total [1] | ΔHbinding^total [1] | -TΔSbinding^total [2] | ΔGbinding^total [2] | ΔHbinding^total [2]
B1 | 6.14 kcal/mol | -11.8 kcal/mol | -17.9 kcal/mol | – | – | –
B2 | – | – | – | 16.6 kcal/mol | -11.8 kcal/mol | -28.4 kcal/mol
B3 | -0.454 kcal/mol | -12.4 kcal/mol | -11.9 kcal/mol | – | – | –
B4 | 8.1 kcal/mol | -9.06 kcal/mol | -17.2 kcal/mol | – | – | –
